Laboratory results as given in the supplement of paper PMC9112550, “Optimization of the antimicrobial peptide Bac7 by deep mutational scanning” (BMC Biology, 2022).

Tested on: Escherichia coli TOP10
Experiment: shrunken log2 fold change of peptide-encoding DNA abundance (4.5 h post-induction vs induction); higher = less antimicrobial activity (less host growth inhibition)
Details: time post-induction: 4.5 h; library: site-saturation at positions 5, 18, 19, 20
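Further: peptides expressed intracellularly from a pBAD plasmid library in pooled LB shake-flask culture, induced with 0.3% L-arabinose, DNA abundance read by NGS, three biological replicates, DESeq2 with apeglm shrinkage.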

First: RRIRHRPPRLPRPRPRPKWNPRP
Second: RRIRYRPPRLPRPRPRPTYHPRP
The “shrunken log2 fold change” value of the first is higher: -0.206 for the first, -0.663 for the second.

Going from RRIRCRPPRLPRPRPRPSGVPRP to RRIRRRPPRLPRPRPRPVMCPRP, the “shrunken log2 fold change” value rises from -0.311 to 0.0382.

Going from RRIRKRPPRLPRPRPRPLKLPRP to RRIRSRPPRLPRPRPRPDIFPRP, the “shrunken log2 fold change” value falls from 0.0766 to -0.135.

RRIRCRPPRLPRPRPRPVKAPRP and RRIRQRPPRLPRPRPRPHDPPRP are within 0.2 log units of each other in “shrunken log2 fold change” value: 0.0593 for the first, 0.142 for the second.

Going from RRIRGRPPRLPRPRPRPNIAPRP to RRIRGRPPRLPRPRPRPGIQPRP, the “shrunken log2 fold change” value rises from 0.197 to 0.591.

Compared with RRIRVRPPRLPRPRPRPVIIPRP, RRIRHRPPRLPRPRPRPKILPRP is higher in “shrunken log2 fold change” value: -0.182 for the first, 0.0673 for the second.

RRIRIRPPRLPRPRPRPDERPRP and RRIRPRPPRLPRPRPRPELHPRP are within 0.2 log units of each other in “shrunken log2 fold change” value: -0.0172 for the first, 0.0832 for the second.

Compared with RRIRARPPRLPRPRPRPTANPRP, RRIRWRPPRLPRPRPRPQVNPRP is lower in “shrunken log2 fold change” value: 0.401 for the first, 0.141 for the second.

RRIRARPPRLPRPRPRPNAPPRP and RRIRFRPPRLPRPRPRPAPKPRP are within 0.2 log units of each other in “shrunken log2 fold change” value: 0.467 for the first, 0.379 for the second.

RRIRMRPPRLPRPRPRPHTMPRP and RRIRPRPPRLPRPRPRPPEHPRP are within 0.2 log units of each other in “shrunken log2 fold change” value: 0.124 for the first, 0.0484 for the second.

First: RRIRVRPPRLPRPRPRPFECPRP
Second: RRIRMRPPRLPRPRPRPTARPRP
The “shrunken log2 fold change” value of the first is lower: -0.0624 for the first, 1.22 for the second.

First: RRIRTRPPRLPRPRPRPDISPRP
Second: RRIRIRPPRLPRPRPRPCMNPRP
The “shrunken log2 fold change” value of the first is higher: -0.038 for the first, -0.307 for the second.

RRIRFRPPRLPRPRPRPNVQPRP and RRIRCRPPRLPRPRPRPHVEPRP are within 0.2 log units of each other in “shrunken log2 fold change” value: -0.237 for the first, -0.421 for the second.

RRIRYRPPRLPRPRPRPSGHPRP and RRIRHRPPRLPRPRPRPHWIPRP are within 0.2 log units of each other in “shrunken log2 fold change” value: -0.265 for the first, -0.415 for the second.

RRIRYRPPRLPRPRPRPVIPPRP and RRIRMRPPRLPRPRPRPEETPRP are within 0.2 log units of each other in “shrunken log2 fold change” value: -0.0128 for the first, 0.0205 for the second.

First: RRIRRRPPRLPRPRPRPAPGPRP
Second: RRIRYRPPRLPRPRPRPQSAPRP
The “shrunken log2 fold change” value of the first is higher: 0.812 for the first, -0.21 for the second.

First: RRIRGRPPRLPRPRPRPDPNPRP
Second: RRIRWRPPRLPRPRPRPEQAPRP
The “shrunken log2 fold change” value of the first is higher: 0.522 for the first, -0.0201 for the second.

Going from RRIRIRPPRLPRPRPRPDGLPRP to RRIRWRPPRLPRPRPRPVVTPRP, the “shrunken log2 fold change” value rises from 0.0731 to 0.338.

RRIRVRPPRLPRPRPRPLSPPRP and RRIRNRPPRLPRPRPRPHIEPRP are within 0.2 log units of each other in “shrunken log2 fold change” value: -0.172 for the first, -0.195 for the second.

First: RRIRHRPPRLPRPRPRPENDPRP
Second: RRIRFRPPRLPRPRPRPWTAPRP
The “shrunken log2 fold change” value of the first is higher: 0.00527 for the first, -0.283 for the second.

RRIRPRPPRLPRPRPRPCQFPRP and RRIRNRPPRLPRPRPRPDFEPRP are within 0.2 log units of each other in “shrunken log2 fold change” value: -0.246 for the first, -0.0968 for the second.

Compared with RRIRDRPPRLPRPRPRPIKQPRP, RRIRTRPPRLPRPRPRPHWHPRP is lower in “shrunken log2 fold change” value: -0.00204 for the first, -0.576 for the second.

First: RRIRGRPPRLPRPRPRPSHMPRP
Second: RRIRYRPPRLPRPRPRPWQCPRP
The “shrunken log2 fold change” value of the first is lower: -0.207 for the first, 0.06 for the second.

Compared with RRIRSRPPRLPRPRPRPNCQPRP, RRIRTRPPRLPRPRPRPPWCPRP is higher in “shrunken log2 fold change” value: -0.0974 for the first, 0.28 for the second.

First: RRIRERPPRLPRPRPRPQILPRP
Second: RRIRFRPPRLPRPRPRPKPFPRP
The “shrunken log2 fold change” value of the first is lower: -0.179 for the first, 0.0515 for the second.

RRIRIRPPRLPRPRPRPHDDPRP and RRIRVRPPRLPRPRPRPNWKPRP are within 0.2 log units of each other in “shrunken log2 fold change” value: -0.177 for the first, -0.0426 for the second.

First: RRIRCRPPRLPRPRPRPEQMPRP
Second: RRIRWRPPRLPRPRPRPKEQPRP
The “shrunken log2 fold change” value of the first is higher: 0.45 for the first, 0.0237 for the second.

RRIRSRPPRLPRPRPRPHRWPRP and RRIRCRPPRLPRPRPRPFAKPRP are within 0.2 log units of each other in “shrunken log2 fold change” value: 0.0724 for the first, -0.108 for the second.

RRIRPRPPRLPRPRPRPTGYPRP and RRIRYRPPRLPRPRPRPWRRPRP are within 0.2 log units of each other in “shrunken log2 fold change” value: -0.151 for the first, -0.104 for the second.

RRIRPRPPRLPRPRPRPATFPRP and RRIRCRPPRLPRPRPRPSTDPRP are within 0.2 log units of each other in “shrunken log2 fold change” value: -0.305 for the first, -0.348 for the second.

Compared with RRIRLRPPRLPRPRPRPGQMPRP, RRIRVRPPRLPRPRPRPEYQPRP is lower in “shrunken log2 fold change” value: 0.482 for the first, -0.235 for the second.

Going from RRIRDRPPRLPRPRPRPQHFPRP to RRIRSRPPRLPRPRPRPYNNPRP, the “shrunken log2 fold change” value falls from -0.422 to -0.785.

Going from RRIRQRPPRLPRPRPRPWPAPRP to RRIRFRPPRLPRPRPRPFTIPRP, the “shrunken log2 fold change” value falls from 0.0128 to -0.313.

RRIRTRPPRLPRPRPRPWQYPRP and RRIRTRPPRLPRPRPRPHIEPRP are within 0.2 log units of each other in “shrunken log2 fold change” value: 0.0126 for the first, -0.0284 for the second.

First: RRIRYRPPRLPRPRPRPYPIPRP
Second: RRIRKRPPRLPRPRPRPWTIPRP
The “shrunken log2 fold change” value of the first is lower: -0.376 for the first, 0.0185 for the second.

RRIRWRPPRLPRPRPRPCWSPRP and RRIRQRPPRLPRPRPRPQNWPRP are within 0.2 log units of each other in “shrunken log2 fold change” value: -0.106 for the first, 0.0213 for the second.

Compared with RRIRFRPPRLPRPRPRPNFLPRP, RRIRTRPPRLPRPRPRPIKVPRP is higher in “shrunken log2 fold change” value: -0.277 for the first, 0.0474 for the second.

With RRIRNRPPRLPRPRPRPRVIPRP the “shrunken log2 fold change” value was -0.21.
